B1: Ankyrin repeat and SAM domain-containing protein 6, residues 774 to 836; numbered along this chain, Q68DC2 (parent)
chain: DEDELTGILKKLSLEKYQPIFEEQEVDMEAFLTLTDGDLKELGIKTDGSRQQILAAISELNAG

± gives the uncertainty stated by the source.

The data set covers variants of B1. Put plainly: abundance fitness (aPCA) (normalised: wild type 0, dead -1); higher = more abundant; growth selection in yeast, the domain comes from the species named. As to conditions: Homo sapiens.
Turning to DEDELTGILKKLSLEKYQPIFEEQEVDMEAFLTLTDGDLKELGIKTDGSRQQILAAISESNAG, the abundance fitness was -0.466 ± 0.045.

As for DEDELTGILKKLSLEKYQPIFEEQEVDMEAFLTLTDGDLKELGIKTDGSRQQILAAISEPNAG, the abundance fitness is -0.636 ± 0.082.

Turning to DEDELTGILKKLSLEKYQPIFEEQEVDMEAFLTLTDGDLKELGIKTDGSRQQILAAISEDNAG, the abundance fitness was -0.359 ± 0.067.

Take DEDELTGILKKLSLEKYQPIFEEQEVDMEAFLTLTDGDLKELGIKTDGSRQQILAAISEGNAG: the abundance fitness is -0.301 ± 0.036.

As for DEDELTGILKKLSLEKYQPIFEEQEVDMEAFLTLTDGDLKELGIKTDGSRQQILAAISENNAG, the abundance fitness was -0.286 ± 0.15.

For DEDELTGILKKLSLEKYQPIFEEQEVDMEAFLTLTDGDLKELGIKTDGSRQQILAAISERNAG, the abundance fitness was -0.108 ± 0.039.

Turning to DEDELTGILKKLSLEKYQPIFEEQEVDMEAFLTLTDGDLKELGIKTDGSRQQILAAISEANAG, the abundance fitness was -0.147 ± 0.041.

As for DEDELTGILKKLSLEKYQPIFEEQEVDMEAFLTLTDGDLKELGIKTDGSRQQILAAISEWNAG, the abundance fitness came out at 0.031 ± 0.055.

As to DEDELTGILKKLSLEKYQPIFEEQEVDMEAFLTLTDGDLKELGIKTDGSRQQILAAISEVNAG, the abundance fitness is -0.03 ± 0.042.

As to DEDELTGILKKLSLEKYQPIFEEQEVDMEAFLTLTDGDLKELGIKTDGSRQQILAAISEINAG, the abundance fitness is -0.073 ± 0.073.

Consider DEDELTGILKKLSLEKYQPIFEEQEVDMEAFLTLTDGDLKELGIKTDGSRQQILAAISELNAH, for which the abundance fitness is -0.216 ± 0.13.

As for DEDELTGILKKLSLEKYQPIFEEQEVDMEAFLTLTDGDLKELGIKTDGSRQQILAAISELNAI, the abundance fitness was -0.161 ± 0.098.

As for DEDELTGILKKLSLEKYQPIFEEQEVDMEAFLTLTDGDLKELGIKTDGSRQQILAAISELNAE, the abundance fitness was -0.2 ± 0.15.

DEDELTGILKKLSLEKYQPIFEEQEVDMEAFLTLTDGDLKELGIKTDGSRQQILAAISELNAF: the abundance fitness is -0.532 ± 0.12.

With DEDELTGILKKLSLEKYQPIFEEQEVDMEAFLTLTDGDLKELGIKTDGSRQQILAAISELNAW, the abundance fitness was -0.464 ± 0.085.

Consider DEDELTGILKKLSLEKYQPIFEEQEVDMEAFLTLTDGDLKELGIKTDGSRQQILAAISELNAA, for which the abundance fitness is -0.007 ± 0.062.

As for DEDELTGILKKLSLEKYQPIFEEQEVDMEAFLTLTDGDLKELGIKTDGSRQQILAAISELNAT, the abundance fitness is -0.105 ± 0.068.

On to DEDELTGILKKLSLEKYQPIFEEQEVDMEAFLTLTDGDLKELGIKTDGSRQQILAAISELNAP, for which the abundance fitness is -0.052 ± 0.097.

Consider DEDELTGILKKLSLEKYQPIFEEQEVDMEAFLTLTDGDLKELGIKTDGSRQQILAAISELNAV, for which the abundance fitness is -0.135 ± 0.045.

As for DEDELTGILKKLSLEKYQPIFEEQEVDMEAFLTLTDGDLKELGIKTDGSRQQILAAISELNAC, the abundance fitness is -0.111 ± 0.067.

Turning to DEDELTGILKKLSLEKYQPIFEEQEVDMEAFLTLTDGDLKELGIKTDGSRQQILAAISELNAK, the abundance fitness was -0.166 ± 0.14.

On to DEDELTGILKKLSLEKYQPIFEEQEVDMEAFLTLTDGDLKELGIKTDGSRQQILAAISELNAD, for which the abundance fitness is -0.278 ± 0.11.

For DEDELTGILKKLSLEKYQPIFEEQEVDMEAFLTLTDGDLKELGIKTDGSRQQILAAISELNAS, the abundance fitness was -0.069 ± 0.054.

Regarding DEDELTGILKKLSLEKYQPIFEEQEVDMEAFLTLTDGDLKELGIKTDGSRQQILAAISELNAR, the abundance fitness was determined as 0.073 ± 0.05.

For DEDELTGILKKLSLEKYQPIFEEQEVDMEAFLTLTDGDLKELGIKTDGSRQQILAAISELNAN, the abundance fitness was -0.266 ± 0.12.

For the variant DEDELTGILKKLSLEKYQPIFEEQEVDMEAFLTLTDGDLKELGIKTDGSRQQILAAISELHAG, the abundance fitness was -0.007 ± 0.084.

On to DEDELTGILKKLSLEKYQPIFEEQEVDMEAFLTLTDGDLKELGIKTDGSRQQILAAISELLAG, for which the abundance fitness was -0.299 ± 0.042.

Consider DEDELTGILKKLSLEKYQPIFEEQEVDMEAFLTLTDGDLKELGIKTDGSRQQILAAISELKAG, for which the abundance fitness was 0.071 ± 0.064.

With DEDELTGILKKLSLEKYQPIFEEQEVDMEAFLTLTDGDLKELGIKTDGSRQQILAAISELMAG, the abundance fitness was -0.333 ± 0.057.

On to DEDELTGILKKLSLEKYQPIFEEQEVDMEAFLTLTDGDLKELGIKTDGSRQQILAAISELYAG, for which the abundance fitness is -0.345 ± 0.062.

Regarding DEDELTGILKKLSLEKYQPIFEEQEVDMEAFLTLTDGDLKELGIKTDGSRQQILAAISELAAG, the abundance fitness was -0.148 ± 0.051.

As for DEDELTGILKKLSLEKYQPIFEEQEVDMEAFLTLTDGDLKELGIKTDGSRQQILAAISELTAG, the abundance fitness was -0.001 ± 0.043.

Consider DEDELTGILKKLSLEKYQPIFEEQEVDMEAFLTLTDGDLKELGIKTDGSRQQILAAISELGAG, for which the abundance fitness is -0.186 ± 0.036.

On to DEDELTGILKKLSLEKYQPIFEEQEVDMEAFLTLTDGDLKELGIKTDGSRQQILAAISELCAG, for which the abundance fitness was -0.314 ± 0.064.

Turning to DEDELTGILKKLSLEKYQPIFEEQEVDMEAFLTLTDGDLKELGIKTDGSRQQILAAISELPAG, the abundance fitness was -0.461 ± 0.057.

With DEDELTGILKKLSLEKYQPIFEEQEVDMEAFLTLTDGDLKELGIKTDGSRQQILAAISELQAG, the abundance fitness was -0.127 ± 0.05.

As for DEDELTGILKKLSLEKYQPIFEEQEVDMEAFLTLTDGDLKELGIKTDGSRQQILAAISELSAG, the abundance fitness is -0.173 ± 0.042.

Turning to DEDELTGILKKLSLEKYQPIFEEQEVDMEAFLTLTDGDLKELGIKTDGSRQQILAAISELRAG, the abundance fitness came to 0.007 ± 0.043.

Turning to DEDELTGILKKLSLEKYQPIFEEQEVDMEAFLTLTDGDLKELGIKTDGSRQQILAAISELWAG, the abundance fitness is -0.531 ± 0.055.

DEDELTGILKKLSLEKYQPIFEEQEVDMEAFLTLTDGDLKELGIKTDGSRQQILAAISELDAG: the abundance fitness is -0.297 ± 0.067.

As for DEDELTGILKKLSLEKYQPIFEEQEVDMEAFLTLTDGDLKELGIKTDGSRQQILAAISELIAG, the abundance fitness was -0.449 ± 0.074.

(Values after the Human Domainome abundance scans (Beltran et al. 2025).)
